In US10975167B2, “Method to reduce pulmonary arterial hypertension by administering inhibitors of nicotinamide phosphoribotransferase” (Arizona Board of Regents on Behalf of the University of …, priority 2017, dated 2021):

What was measured:
[1] = test system: hPASMCs; assay: TUNEL apoptosis assay in hPASMCs; format: cell-based, human; conditions: H2O2 100 μM + rhNAMPT 20 μg/ml, 24 hrs
Experimental: hPASMCs were cultured on a coverslip in a 6-well cell culture plate. H2O2 (100 μM, Sigma, Cat. #ab66110) was used as an apoptosis stimulus for hPASMCs.
When cell confluence reached 95%, cells were starved for 3 hrs and stimulated by H2O2, FK866 (10 μM), H2O2+rhNAMPT (20 μg/ml) or H2O2+rhNAMPT (20 μg/ml) with FK866 (10 μM) for 24 hrs. Cell apoptosis was examined using an in situ BrdU-Red DNA fragmentation (TUNEL) kit. The cells on the coverslips were examined using a Nikon Eclipse E800 fluorescence microscope, and the images were processed by MetaMorph software (Molecular Devices, Inc.). Approximately ten images were taken from each condition, and over 500 cells were counted according to DAPI staining.

[2] = test system: human lung SMCs; assay: Store-operated Ca2+ entry and STIM2/Orai2 expression in human lung SMCs; format: cell-based; conditions: 48 hr
Experimental: Recombinant NAMPT protein (CY-E1251) was obtained from MBL Lifescience. Solubilized protein lysates isolated from lung tissues and cells were used to detect NAMPT, STIM2, ORAI2 and actin as previously described. Cells were lysed in a modified radioimmunoprecipitation assay (mRIPA) lysis buffer with a protease and phosphatase inhibitor cocktail (Sigma Aldrich, St. Louis, Mo.), and protein quantification and Western blot analysis were performed according to standard procedures.
Human Primary Pulmonary Artery Smooth Muscle Cells (hPASMCs) from control and PAH patients were obtained and isolated as previously described from Lonza (CC-2581 and CC-2530) were used for cell transfection and proliferation assays.
[Ca2+]cyt was measured in PASMC loaded with fura-2 (4 mM) in a Nikon digital fluorescent imaging system. Cells were loaded with 4 μM fura-2 acetoxymethyl ester (fura-2/AM) for 60 min at 25° C. and [Ca2+]cyt was measured using a ratiometric method at 32° C. Cyclepiazonic acid (CPA, a specific Ca2+-ATPase inhibitor) was used to induce store-operated calcium entry (SOCE).

[3] = test system: human lung SMC; assay: BrdU proliferation of human lung SMC exposed to recombinant NAMPT; format: cell-based; conditions: 1, 5, 20 μg/ml
Experimental: Cell proliferation was determined using either a 5-bromo-2′-deoxyuridine (BrdU) incorporation assay or cell counting. BrdU assays (QIA58, Calbiochem, San Diego, Calif.) were performed in a 96-well format according to manufacturer's instructions, using starting cell densities of 4000 cells/well. For cell counting, cells were trypsinized and resuspended after experimental procedures; densities were counted with a TC10™ automated cell counter (Bio-Rad). FBS or PDGF was used as positive controls.

[4] = test system: hPASMCs; assay: Transwell migration and wound healing assays; format: cell-based, human; conditions: rhNAMPT 20 μg/ml
Experimental: For quantitative data from transwell migration assays (ANOVA P<0.05). 50,000 cells were added into Falcon™ Cell Culture Inserts (Fisher, Cat. #08-771-12) with 8-μm pores in 1 ml of basal medium and 250 μl on the top of the transwell. Cells were then stimulated by vehicle, rhNAMPT (20 μg/ml) with or without FK866 (10 μM) for 48 hrs. Unmigrated cells were then scraped from the top of the filter and the migrated bottom layer of cells were stained by 1% aqueous Crystal Violet solution (Electron Microscopy Sciences, Cat. #RT 26088-10). The transwell bottom was gently separated by a blade and put on a glass slide for imaging.
The migrated cells were counted and quantified. Images were taken by an Olympus BX51Fluorescence Microscope and processed by DPController Software (Oylmpus IMS).
In wound healing assays, approximately 0.5 million human Primary Pulmonary Artery Smooth Muscle Cells (hPASMCs) were seeded to 6-well cell culture plates, a straight line was scratched using a 200-μl pipette tip after cells reached 100% confluence. Three dots were labelled beside each line. […]
Image J software was used to measure the wound line width for all the three spots labeled in each line. Wound closure %={[width (start point)-width (end point)]/width (start point)}×100% was calculated (ANOVA P<0.05).

B1: rNAMPT: Recombinant NAMPT protein (CY-E1251) from MBL (protein)
chain: MNPAAEAEFNILLATDSYKVTHYKQYPPNTSKVYSYFECREKKTENSKLRKVKYEETVFYGLQYILNKYLKGKVVTKEKIQEAKDVYKEHFQDDVFNEKGWNYILEKYDGHLPIEIKAVPEGFVIPRGNVLFTVENTDPECYWLTNWIETILVQSWYPITVATNSREQKKILAKYLLETSGNLDGLEYKLHDFGYRGVSSQETAGIGASAHLVNFKGTDTVAGLALIKKYYGTKDPVPGYSVPAAEHSTITAWGKDHEKDAFEHIVTQFSSVPVSVVSDSYDIYNACEKIWGEDLRHLIVSRSTQAPLIIRPDSGNPLDTVLKVLEILGKKFPVTENSKGYKLLPPYLRVIQGDGVDINTLQEIVEGMKQKMWSIENIAFGSGGGLLQKLTRDLLNCSFKCSYVVTNGLGINVFKDPVADPNKRSKKGRLSLHRTPAGNFVTLEEGKGDLEEYGQDLLHTVFKNGKVTKSYSFDEIRKNAQLNIELEAAHH
hPASMC apoptosis (TUNEL positive cells) [1]: inhibits | cyclopiazonic acid (CPA)-mediated store-operated Ca2+ entry (SOCE) ([2]; 20 μg/ml): augments | expression of Orai2 [2]: increases | expression of STIM2 [2]: increases | human lung SMC proliferation [3]: dose-dependently stimulating | human PASMC migration [4]: promotes
